Measured values published in the nanobody polyreactivity screen of Harvey et al. (2022).

Assay: yeast display, Sf9 membrane polyspecificity reagent, FACS + sequencing; frameworks hold sequencing errors
In short: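 Genes from sorted yeast were amplified by colony PCR, read by MiSeq 2 × 250 sequencing and filtered on CDR length. These cells carried a synthetic nanobody library in Saccharomyces cerevisiae BJ5465 and were sorted by FACS into low and high (top ~1%) gates on anti-HA and streptavidin fluorescence. Polyreactivity is labelled according to the gate of origin.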

| Sequence | polyreactivity (PSR sort gate) |
| --- | --- |
| QVQLVESGGGLVQSGGSLRLSCAASGSIFDYYAMGWYRQAPGKERELVASINSSGTGTYYADSVKGRFTFSRDNAKNTVSLQVNSMKPEDTAVYYCATRQAVGYSSGRGYGYWGQGTQETVSS | low polyreactivity |
| QVQLVESGGGLVQSGGSLRLSCAASGSIFGYYAMGWYRRAPGKERELVAAISVSGGSTYYADSVKGRFTISRDNAKNTVYLLMNSLKPEDTAVYYCNKVQGSWRVPYYYWGQGTQVTVSS | high polyreactivity |
| QVQLVESGGGLVQSGGSLRLSCAASGSIFYTNAMGWYRQAPGKERELVAAISYGGTTTYADSVKGRFTISRDNAKNTVYLQMNSQKPEDTAVYYCNADWLYYGYWGYGHIWYDYWGQGTQVTVSS | low polyreactivity |
| QVQLVESGGGLVQSGGSLRLSCAASGSSFLWYGMGSYRQAPGKERELVASISRGGGTDYADSVKGRFTISRDNAKNTVYLQMNSLKPEDTAVYYCAATGVKRYDHWGQGTQVTVSS | low polyreactivity |
| QVQLVESGGGLVQSGGSLRLSCAASGSTFKYYAMGWYRQAPGKERELVAAISRSGGSTYYADSVKGRFTISRDNAKNTVYIQMNSLKPEDTAVYYCNAYYRYSFCELDKYGYWGQGTQVTVSS | high polyreactivity |
| QVQLVESGGGLVQSGGSLRLSCAASGSTFVSYDMGWYRQAPGKERELVADISWSGVSTYADSVKGRFTNSRDNAKNTVYLQMNSLKPEDTAVYYCAKDCDLYQRGGYYWGQGTQVTVSS | low polyreactivity |
| QVQLVESGGGLVQSGGSLRLSCAASGSTLSVYVMGWYRQAPGKERELVARIRSGGNTYYADSVKGRFTISRDNAKNTVYLLMNSLKPEDTAVYYCNADPSTGWYKYDYWGQGTQVTVSS | high polyreactivity |
| QVQLVESGGGLVQSGGSLRLSCAASGSTLYFKAMGWYRQAPGKERDLVAAITYDGGSTYYADSVKGRFTISRDNAKNTVYLQMNSLKPEDTAVYYCAGRTDGYRNNYWGQGTQVTVSS | high polyreactivity |
| QVQLVESGGGLVQSGGSLRLSCAASGYIFGYYAMGWYRQAPGKERELVADITWRGDSTYADSVKGRFTISRDNAKNTVYLQMNSLKPEDTAVYYCAADIATEYWYTGYDHWGQGTQVNVSS | low polyreactivity |
| QVQLVESGGGLVQSGGSLRLSCAASVRIFGPYVMGWYRQAPGKERELVAAISTSGTSTYDADSVKGRFTISRDNAKNTVYLQMNSLKPEDTAVYYCAKRSGALHRLMDYWGQGTQVTVSS | low polyreactivity |
| QVQLVESGGGLVQSGGSLRLSCAATGSTFWNYAMGWYRQAPGKERELVAAITRGSSTNYADSVKGRFTISRDNAKNTVYLQMNSMKPEDTAVYYCAKRVGRWSAFYYWGQGTQVTVSS | high polyreactivity |
| QVQLVESGGGLVQSGGSLRLSCAYSGRTFYRNTMGWYRHAPGKEREFVAAISATAGRTYYADSVKWRFTISRDNAKNTVYLQMNSLKPEDTAVYYCAAVPLRNRWANSWPALDYWGQGTLVTVSS | high polyreactivity |
| QVQLVESGGGLVQSGGSLRLSCDASGRIFSRYAMGWYIQAPGKEREFVAAISRSGTSTYYADSVKVRFTISRDNAKNTVYLQMNSLKPEDTAVYYCAADYPAVISIRRYDYWGQGTQVTVSS | low polyreactivity |
| QVQLVESGGGLVQSGGSLRLTCAASGTLFYAMGWSRQAPGKERELVATITQRGGSTYYADSVKGRFTLSRDNAKNTVYLQMNSLKPEDTAVYYCAAAIYRASRRRTSYSYDYCGQGTQVTVSS | high polyreactivity |
| QVQLVESGGGLVQTGGSLRISCAASGSTFYYYAIGWYRQAAGKERELVAGISWGGGSTYYEDSVKGRFTISRDNAKNTVYLQMNSLKPEDTAVYYCNALNPKSYDYWGHGTQVTVSS | low polyreactivity |
| QVQLVESGGGLVQTGGSLRLSCASSGRIFFDNAMGWYSQAPGKERELVAGIDSGGSTYYADSVKGRFSISRDNAKNTVYLQMNRLKPEDTAVYYCNADYPPSTQSPLLQSYDYWGHGTQVTVSS | low polyreactivity |
| QVQLVESGGGLVQVGGSLRLSCAASGFTFLGYAMGWYRQAPGKEREMVAAITTGGGSTYYAVSVKGRFTISRDNATTTVYLQMNSLKPEDTAVYYCAARRNVRPRYGYWGQGTQVTVSS | high polyreactivity |
| QVQLVESGGGLVQVGGSLRLSCAASGLTFYANAMGWYRQAPGKEREVVAAIRKRGGSTYYADSVKGRFTISRDNAKNTVYFQMNSLKPEDTAVYYGATYGGPFSVGTGFHDVRYDYWGHGTQVTVSS | low polyreactivity |
| QVQLVESGGGLVQVGGSLRLSCAASGSILTDYGMGWNRPAPGKERELVAVIDFSSGSTYYADSVKGRFTISRDNAKNTVYLQMNSLKPEDTAVYYCAAGPDPLGEDYWGQGTQVTVSS | low polyreactivity |
| QVQLVESGGGLVRAGGSLRLSCAASGSTFGENAMGWYRQAPGKERELVAAISDSGGDTYYADSVKGRFTISRDNAKNTVYLQMNSLKPEDTAVYYCAADRYGYWYAYYSWGQGTQVTVSS | low polyreactivity |
| QVQLVESGGGLVRAGGSLRLSCAASGSTFRQYAMGWYRQAPGKERDLVAAINWSGSSTYYADSVKGRFTISRDNAKNTVYLQMNSLKPEATAVYYCAARRVLATFQHSNSHYYWGQGTQVTVSS | high polyreactivity |
